Here are results for three molecules from patent US8986997B2, “Methods and compositions for increasing biological molecule stability” (The Regents of the University of Michigan, priority 2007, dated 2015).

Where a chain is given by its changes, count along the chain named. In names and notes the source's numbering stands. Entries after “also recorded” stand apart in the source; their conditions may differ.

For data set [1], the target named is T1, colicin E7 (Escherichia coli, UniProt Q47112).
T1 sequence (Q47112 1-576): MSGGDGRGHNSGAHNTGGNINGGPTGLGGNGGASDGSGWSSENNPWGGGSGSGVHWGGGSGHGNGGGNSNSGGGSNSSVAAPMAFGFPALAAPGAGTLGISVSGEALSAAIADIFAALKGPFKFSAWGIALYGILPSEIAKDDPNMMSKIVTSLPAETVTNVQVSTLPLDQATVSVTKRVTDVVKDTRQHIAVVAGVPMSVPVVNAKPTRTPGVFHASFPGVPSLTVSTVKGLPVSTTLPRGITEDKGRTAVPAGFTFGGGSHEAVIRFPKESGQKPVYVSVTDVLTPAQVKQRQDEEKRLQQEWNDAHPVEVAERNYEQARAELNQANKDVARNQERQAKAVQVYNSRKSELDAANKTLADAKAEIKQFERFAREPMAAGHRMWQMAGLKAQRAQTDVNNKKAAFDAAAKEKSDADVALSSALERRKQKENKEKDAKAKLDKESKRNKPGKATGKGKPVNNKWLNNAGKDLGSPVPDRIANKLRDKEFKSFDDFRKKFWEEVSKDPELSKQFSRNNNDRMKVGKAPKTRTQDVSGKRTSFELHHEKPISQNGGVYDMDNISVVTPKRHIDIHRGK
Conditions: in words; listed as Im7; cited from earlier work.

Data set [2] is described as follows: Equilibrium unfolding experiments (urea denaturation, folding free energy). It counts as physicochemical. As for the experimental part: Proteins were dissolved to a concentration of approximately 100 μM in 50 mM Tris-Cl buffer at pH 7.5, containing 400 mM Na2SO4. Substocks of each mutant were made up in the same buffer containing 0, 2, 4, 6 and 8 M urea. These substocks were titrated into a black polypropylene 384 well microtitre plate (Greiner) to create eight replicates of a urea titration from 0 to 8 M urea in steps of 0.2 M urea, using a Hamilton Microlab Star robot. The plates were briefly centrifuged and incubated at 37° C. for one hour to allow the unfolding reaction to come to equilibrium. The tryptophan fluorescence of each sample was measured using a PerkinElmer EnVision platereader. The excitation wavelength was 280 nm and emission was measured using a 340-350 nm filter. Data were normalized and processed using Igor Pro (Wavemetrics). The entire dataset was fitted globally to a two-state equilibrium unfolding equation and the ΔG values for each Im7 variant were compared to that of the wildtype protein under identical conditions. ΔΔGUN=ΔGUN(mutant)−ΔGUN(wildtype)

The conditions of data set [3]: wild type protein; in words; cited from earlier work.

B1: Wildtype Im7: small helical protein that confers immunity to bacterial colicin E7 (protein)
chain: MELKNSISDYTEAEFVQLLKEIEKENVAATDDVLDVLLEHFVKITEHPDGTDLIYYPSDNRDDSPEGIVKEIKEWRAANGKPGFKQG
With B1, in data set [1], the “affinity for colicin E7” value was “binds very tightly; also recorded: picomolar affinity”.

B2: N26K: Im7 variant more stable than Im7 wt, in Kan55-Im7 (protein)
chain: B1 chain with N26K
With B2, the “stability of Im7 variant relative to Im7 wt” value in data set [2] was “more stable”.

B3: G-CSF: granulocyte-colony stimulating factor, sold under the trademark names Neopogen and Neulasta (protein, UniProt P09919 31-207, looked up)
Granulocyte …: TPLGPASSLPQSFLLKCLEQVRKIQGDGAALQEKLVSECATYKLCHPEELVLLGHSLGIPWAPLSSCPSQALQLAGCLSQLHSGLFLYQGLLQALEGISPELGPTLDTLQLDVADFATTIWQQMEELGMAPALQPTQGAMPAFASAFQRRAGGVLVASHLQSFLEVSYRVLRHLAQP
B3: the tendency to aggregate result in data set [3] is listed as “high tendency to aggregate”.
